According to the supplement of paper PMC12042874:
± gives the uncertainty stated by the source.

Test: amyloid nucleation score (Sup35N fusion, yeast selection) (log enrichment); library NNK3; higher = more nucleation; inactive = no reads after selection
Procedure, shortened: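 Peptides of 20 random codons, each fused to Sup35N, were expressed in psi-negative yeast. Cells were induced with 100 μM copper sulfate for 24 hours and grown 7 days at 30°C on medium lacking adenine and uracil, and plasmid inserts before and after selection were Illumina-sequenced. Nucleation scores are DiMSum log enrichments of output over input reads, centred on the mode score of non-aggregating sequences, and sequences under 100 input reads were excluded.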

Row | Substance | amyloid nucleation score
1 | VGSLIGMNYGF | inactive
2 | VGSRAGYMRQLSVSACTRVL | inactive
3 | VGTGICKRPGYRAGSV | inactive
4 | VGTPCSYSWLAAPV | inactive
5 | VGYLCFLFQTDSFI | inactive
6 | VHCHV | -0.536 ± 0.93
7 | VHDRSLHLVGY | -0.841 ± 1.2
8 | VHGYAAFLRRWWEQMNFSVR | inactive
9 | VHHEILHHGLFGEMSCVVEC | inactive
10 | VHKFDSL | inactive
11 | VHSCEMSSPPTILKVKLVYL | inactive
12 | VHVLVVWYFAFTCVCRVPFG | 0.228 ± 0.85
13 | VHVSEGPRWRFHSRRDSSVV | inactive
14 | VIALVSGEYSWFRILCTPFY | inactive
15 | VIFKKGLRLFTSSCDWSISD | inactive
16 | VIHMH | inactive
17 | VIIICQLHCYTKTMIIRHRC | 0.118 ± 0.3
18 | VIKDYSQCMSWHGVESSWRL | -0.31 ± 0.68
19 | VIMVSSRDQADLCESVMQM | inactive
20 | VINCSAHTEFRGLNFRVTCT | inactive
21 | VINVYTAINGSWALN | 2.17 ± 0.059
22 | VIRDQQIIVKCCNLVSICGI | 1.32 ± 0.17
23 | VIRLLVIAFRDHLNEVMFHK | inactive

Row | Substance | amyloid nucleation score
24 | VIRRYCAGARHYSVLEIMRE | inactive
25 | VISYYIATGGFIDVFYCCKF | 2.15 ± 0.085
26 | VIVASVVLKW | inactive
27 | VIVSREKSITRSNVIEWWNL | 1.82 ± 0.11
28 | VIVVREYVVWKNISMIVDYL | -0.019 ± 0.24
29 | VIVYQKSMLHLGCSLGIAFW | inactive
30 | VIWAVPAH | inactive
31 | VKCQRRH | inactive
32 | VKEPPTCVTCSAHSIRSGYS | inactive
33 | VKFSTRNFNKVQLHVFTTCM | inactive
34 | VKFYNLRRCVIDLMITLSRM | inactive
35 | VKGIEVNRLMFEERISGCYV | inactive
36 | VKKDMRRLLMFRIGGKSFGG | inactive
37 | VKKSDWAVGLVDSDQCVHFD | inactive
38 | VKRGFEWFCSMTHFNTSCIR | inactive
39 | VKTINSWIRWVTLRILQVVS | inactive
40 | VKTSQRSVTL | inactive
41 | VLADYGTM | inactive
42 | VLCQSHACRSHAGLCSSNKI | inactive
43 | VLFCRFSSWV | 0.739 ± 0.26
44 | VLFRKCQCVRSHLI | inactive
45 | VLGLFSTYDSFVCFN | inactive
46 | VLGPGIIRTEQVLTVVRTMA | inactive

Row | Substance | amyloid nucleation score
47 | VLGPLQLRRIAHETGRCNAM | inactive
48 | VLHGVL | inactive
49 | VLIITLMYMYATFLSFYKPQ | 2.59 ± 0.085
50 | VLIKQECSQRFFDSNLNWHF | 0.688 ± 0.33
51 | VLKARMY | inactive
52 | VLLMLLTV | inactive
53 | VLLNLSSFMLSTFTLRMS | inactive
54 | VLLQKGTETECGLAIVQLKW | inactive
55 | VLLVF | inactive
56 | VLMECSNFAVEQTARLVPVR | inactive
57 | VLMGMRCEREFPE | inactive
58 | VLPVHNKVNITLTVSAPWLW | inactive
59 | VLRYWRRLGQYTAGSYPEVL | inactive
60 | VLSSWTIK | inactive
61 | VLTIRRFLRVSHFRNQWFPV | inactive
62 | VLVCYC | inactive
63 | VLVFSLISFLSWDWCSYLV | inactive
64 | VMCGNMWVYVKSLDT | 0.96 ± 0.11
65 | VMGVPST | inactive
66 | VMHGFVGAAKSNWKNPWHRA | inactive
67 | VMLFY | 0.845 ± 0.14
68 | VMQYLLMAEKNQLRLQRFAR | inactive
69 | VMSKIISTQLVDMR | inactive

Row | Substance | amyloid nucleation score
70 | VMYCYWSLIMSDSCNFMCQY | 2.08 ± 0.058
71 | VMYSGFRVILF | 0.751 ± 0.15
72 | VNCATWNLNFTRMFMACIGL | 1.28 ± 0.12
73 | VNFRIKAIVVSLRGYDWLSG | 0.287 ± 0.67
74 | VNGNVDKFQKSKSLGTFVTT | inactive
75 | VNNKIVVWTIMSSNDERLPS | 1.54 ± 0.082
76 | VNSGVGVSVRRASSLCLCVR | inactive
77 | VNSLNHYYLIPCARFEPEG | inactive
78 | VNTFVFTGFCMYSFVMSWLN | 0.525 ± 0.2
79 | VNWIVLSYHYNRYDVGNMAS | 2.87 ± 0.074
80 | VNYDSLPVLRPGSEGGVLFN | inactive
81 | VNYHFYKFYGPWRVWNRTRA | 1.95 ± 0.086
82 | VNYLYPS | inactive
83 | VNYSLQVNFVFRWARFKLWL | inactive
84 | VPEWG | inactive
85 | VPFVRVNDALVVVSLWDKVL | inactive
86 | VPSQLFLHRHHCVVWIEDMW | 0.827 ± 0.19
87 | VPVRSSYMTEMYVCSGISPR | inactive
88 | VPVVYGSCCKHRGICMYVL | inactive
89 | VQAAKLVYHYQGSCLNRLRE | inactive
90 | VQSMKMGPVRISKCNDKSER | inactive
91 | VRACNRLVYRFGDTVISDKR | inactive
92 | VRAPTYVGAWSPGEFNYRSD | inactive

Row | Substance | amyloid nucleation score
93 | VRFCGLLIGQVTWFLAVLEY | inactive
94 | VRFLGFHKCVILAIDYDQFL | 1.67 ± 0.1
95 | VRFNSYAFYITIVGGKHTTT | 2.38 ± 0.059
96 | VRFYVAYFILFSDATAMALK | inactive
97 | VRGLDVCTDEFCVQLDYMW | inactive
98 | VRIKFCAWKLGYGSTGNVHI | 0.657 ± 0.2
99 | VRITSMPTFWRIEPGYLERV | inactive
100 | VRKVSTAPAELHAIKSGDTH | inactive
101 | VRLTLIRSLRARRDGEDSKM | inactive
102 | VRLYMYMTILIGNVDLFVEG | inactive
103 | VRMCVIVQVKVCARDMTVST | inactive
104 | VRQHCQMLMILFLYPLACGS | inactive
105 | VRRCNTCLQ | inactive
106 | VRRTLYISMRLRLIPYLSNV | 1.62 ± 0.11
107 | VRSHPCSGGTLVGWDSYW | 1.01 ± 0.14
108 | VRSIRWKVT | inactive
109 | VRVELNYKMMHMSHRIMY | 1.52 ± 0.073
110 | VRVMDLVGKALSTSSVANLA | inactive
111 | VSACIWRKLPVFVYSVSAGS | inactive
112 | VSANSMFIRGLIDSILAELA | inactive
113 | VSASILS | inactive
114 | VSCESECLLLMIKKYFGSDS | 0.12 ± 0.26
115 | VSDIGCMGVDSLSPGYHNIV | inactive

Row | Substance | amyloid nucleation score
116 | VSDKHVYCMEGCMP | inactive
117 | VSDRVSLSVGG | inactive
118 | VSEIW | inactive
119 | VSETMWMSFLTVSFELRVDG | inactive
120 | VSFELYMHFSSFSYFGMLKG | 1.16 ± 0.13
121 | VSFHRRKLNHCNCRML | inactive
122 | VSFNKPLKQVKGPAVTGWKE | inactive
123 | VSFNP | -0.32 ± 0.6
124 | VSFYIVKSLEEAGVSR | 1.36 ± 0.15
125 | VSIRTR | inactive
126 | VSKVMSEMIYVGIYICKCCL | 1.39 ± 0.11
127 | VSMVQVTIRKRAS | inactive
128 | VSNDLWATVYHWGL | inactive
129 | VSNYTSRNNYVNCQLELTRA | inactive
130 | VSRFVLLWMSNCWATYGLFR | inactive
131 | VSRGDTINIISSVDCVKTYF | inactive
132 | VSRRFVIM | 0.45 ± 0.17
133 | VSRYGYCCRRIYAELHGFPD | inactive
134 | VSSATTTMARRIHCFRVSRV | inactive
135 | VSSEGYIADTA | 0.292 ± 0.57
136 | VSTHVLHPYTYT | inactive
137 | VSTWGRDLVVTIAGR | inactive
138 | VSVCLKELHQ | inactive

Row | Substance | amyloid nucleation score
139 | VSVEFRSDSARWGNDVCEET | inactive
140 | VSVIWSMMCIRIITISCGRV | inactive
141 | VSWLCSMKDICPHCDEINYR | 1.8 ± 0.062
142 | VSYGTCH | inactive
143 | VTKARSHYTVSVLMDEKCMG | inactive
144 | VTLQLPDCFGRACIGLAYIA | inactive
145 | VTPVTYQASLTICYSYKALH | inactive
146 | VTRHEFVLLLETVPISYWPH | inactive
147 | VTRIW | inactive
148 | VTVCRHTPILIKKPM | inactive
149 | VTWAAMWASRRVIQVITLRL | inactive
150 | VVASDNSTMVENWSFNGKMS | inactive
151 | VVCFFYNVF | 2.36 ± 0.055
152 | VVCIHLVVDTVC | inactive
153 | VVCLFDVKFESARVLDLLSV | inactive
154 | VVGLWTNS | inactive
155 | VVIFFRIQRVTCVWNVLL | inactive
156 | VVLMALVQVYFTSGGMFIKD | inactive
157 | VVLNWNTNGY | 0.669 ± 0.15
158 | VVMFSTPDIVDILSHVYRLG | inactive
159 | VVNRHGYLAMLK | inactive
160 | VVRFLDQKMYVVGLLSGS | inactive
